Data on 14 molecules can be found in US20260167713A1 (UCB, published 2026).

What is called Kd is the equilibrium constant for the complex coming apart. By koff is commonly meant a measure of how fast the partners let go of each other. By kon is commonly meant a measure of how fast the partners come together.

Substitutions are numbered along the chain they refer to.

B1: IBV1-scFc (Fc fusion, not shown: a dimerising Fc or GST; large carriers; small tags and cut ends)
VHH: QVQLVQSGGGLVQPGGSLRLSCAASGSISSNNVMGWYRQGPGKQREFVASITDSDLANYAASVKGRFTISRDNAKNTVNLQMNSLRPEDTDVYYCRLTMMTYPPTISWGQGTQVTVSS
notes: Single chain mouse IgG Fc construct, used as transient HEK293 supernatant; also called VH-V1; VHH-scFc of V1
B2: IBV3-scFc (Fc fusion, not shown: a dimerising Fc or GST; large carriers; small tags and cut ends)
VHH: B1 VHH with Q6E, S27T, I51V, D91G, M99I
notes: Single chain mouse IgG Fc construct, used as transient HEK293 supernatant; also called VH-V3
B3: IBV2-scFc (Fc fusion, not shown: a dimerising Fc or GST; large carriers; small tags and cut ends)
VHH: B1 VHH with T105I
notes: Single chain mouse IgG Fc construct, used as transient HEK293 supernatant; also called VH-V2
B4: IBS-scFc (Fc fusion, not shown: a dimerising Fc or GST; large carriers; small tags and cut ends)
VHH: QVQLVESGGGLVQAGGSLRLSCAASGVSFSRTSLGWFRQAPGKEREFVSVISWIGGTTYYADSLKGRFTISRDNAKSTVYLQMNSLKPEDTALYYCAISNGVLPRTEGAFASWGQGTQVTVSS
notes: Single chain mouse IgG Fc construct, used as transient HEK293 supernatant; also called VH-S
B5: IBO-scFc (Fc fusion, not shown: a dimerising Fc or GST; large carriers; small tags and cut ends)
VHH: QVQLVQSGGGLVQAGDSLRLACAASEGTFRTNVMGWFRQAPGKEREFVAAISWSGGITHYSNSVKGRFAISRDNAKNTVYLQMNSLKPEDTAVYYCAADPSTTPWNLRVRVNEYEYWGQGTQVTVSS
notes: Single chain mouse IgG Fc construct; It is placed under this molecule; also called VH-O; biotinylated-'O'
B6: intrabody V1 (VHH expressed intracellularly) (VHH, not shown: small tags and cut ends)
VHH: B1 VHH
B7: intrabody V2 (VHH expressed intracellularly) (VHH, not shown: small tags and cut ends)
VHH: B1 VHH with T105I
B8: intrabody V3 (VHH expressed intracellularly) (VHH, not shown: small tags and cut ends)
VHH: B1 VHH with Q6E, S27T, I51V, D91G, M99I
B9: intrabody S (VHH expressed intracellularly) (VHH, not shown: small tags and cut ends)
VHH: B4 VHH
B10: intrabody O (VHH expressed intracellularly) (VHH, not shown: small tags and cut ends)
VHH: B5 VHH
B11: IBV1.CDRAAA-scFc (Fc fusion, not shown: a dimerising Fc or GST; small tags and cut ends)
VHH: B1 VHH with Y102A, P103A, P104A
notes: CDR3 mutant control of V1 in the VHH-scFc format; also called VH-V1.CDRAAA
B12: IBS.CDRAAA-scFc (Fc fusion, not shown: a dimerising Fc or GST; small tags and cut ends)
VHH: B4 VHH with E6Q, R105A, E107A, F110A
notes: CDR3 mutant control of S in the VHH-scFc format; also called VH-S.CDRAAA
B13: IBO.CDRAAA (2)-scFc (Fc fusion, not shown: a dimerising Fc or GST; small tags and cut ends)
VHH: B5 VHH with R108A, V109A, R110A
notes: CDR3 mutant of O in the VHH-scFc format; also called VH-O.CDRAAA(2)
B14: IBO.CDRAAA (1)-scFc (Fc fusion, not shown: a dimerising Fc or GST; small tags and cut ends)
VHH: B5 VHH with P104A, W105A, N106A
notes: CDR3 mutant control of O in the VHH-scFc format; also called VH-O.CDRAAA(1)

The target in the first assay is T1, recombinant full-length human beta-catenin (human, UniProt P35222 2-781, biotinylated in the ELISA and SPR assays (sites not given); not biotinylated on the Western blots).
T1 construct: Tags are not described; also called β-catenin; biotinylated beta-catenin
T1 sequence: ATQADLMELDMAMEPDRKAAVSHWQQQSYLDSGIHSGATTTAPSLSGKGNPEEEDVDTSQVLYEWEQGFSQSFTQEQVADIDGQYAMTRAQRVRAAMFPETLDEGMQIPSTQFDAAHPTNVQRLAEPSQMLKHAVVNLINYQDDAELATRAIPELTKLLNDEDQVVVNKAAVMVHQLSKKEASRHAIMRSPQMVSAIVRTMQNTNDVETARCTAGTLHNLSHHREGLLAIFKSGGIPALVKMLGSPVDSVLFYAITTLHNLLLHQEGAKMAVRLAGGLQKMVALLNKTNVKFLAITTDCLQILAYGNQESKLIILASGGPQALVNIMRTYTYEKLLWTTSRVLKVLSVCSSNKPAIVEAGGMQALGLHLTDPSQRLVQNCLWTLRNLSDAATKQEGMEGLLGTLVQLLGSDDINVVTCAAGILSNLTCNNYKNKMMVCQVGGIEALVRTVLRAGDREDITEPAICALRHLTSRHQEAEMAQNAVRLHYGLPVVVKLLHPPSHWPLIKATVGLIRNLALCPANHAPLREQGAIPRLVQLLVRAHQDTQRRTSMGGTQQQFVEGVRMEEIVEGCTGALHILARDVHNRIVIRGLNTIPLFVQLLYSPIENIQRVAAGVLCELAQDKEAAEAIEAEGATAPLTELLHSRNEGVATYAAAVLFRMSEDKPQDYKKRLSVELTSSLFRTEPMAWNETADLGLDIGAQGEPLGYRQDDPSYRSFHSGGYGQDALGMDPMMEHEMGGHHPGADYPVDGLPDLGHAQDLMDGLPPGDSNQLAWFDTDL
The assay can be described thus: ELISA on captured biotinylated beta-catenin.
Turning to B1, the Kd is less than 10 nM.
Still for that read-out and setting: for B2 the value was less than 10 nM; for B3, less than 10 nM.
For the molecule B4, the Kd was less than 10 nM.
B5: the Kd was less than 10 nM.

The target of a further assay is endogenous beta-catenin (HEK293 cells) (human) (UniProt P35222). The assay can be described thus: cell-based or functional assay.
Molecule B6 showed a firefly luciferase activity signal, PPSP-stimulated HEK293 TCF/LEF reporter bioassay (% of control VHH signal) of less than 25.
Consider B7, for which the firefly luciferase activity signal, PPSP-stimulated HEK293 TCF/LEF reporter bioassay (% of control VHH signal) was less than 25.
With B8, the firefly luciferase activity signal, PPSP-stimulated HEK293 TCF/LEF reporter bioassay (% of control VHH signal) was less than 25.
On the same count and under the same terms, next, B9: less than 25.
Molecule B10 had a firefly luciferase activity signal, PPSP-stimulated HEK293 TCF/LEF reporter bioassay (% of control VHH signal) of less than 25; an inhibition of beta-catenin co-transcriptional activity, HEK293 bioassay stimulated with LiCl2, against IBO.CDRAAA (1) of 65%; an inhibition of beta-catenin co-transcriptional activity, HEK293 bioassay stimulated with Wnt3a-conditioned media, against IBO.CDRAAA (1) of 66%; a percentage inhibition of firefly luciferase production in the bioassay, IBO against IBO.CDRAAA (1) of 83%.

Another assay has as its target T1, recombinant full-length human …. The assay is described as follows: Western blot of reduced recombinant beta-catenin on PVDF, probed with IBV1.CDRAAA-scFc transient supernatant at 16 nM, detected with anti-mouse Fc HRP. The method, then:
FIG. 5: Reducing anti-beta-catenin Western blots probed by the intrabodies. Gel A:) IBV1-scFc (23 nM), Gel B: IBV2-scFc (110 nM), Gel C: IBV3-scFc (85 nM) and Gel D: IBV1.CDRAAA-scFc (16 nM) transient supernatants. Any binding was detected with t anti-mouse Fc HRP antibody. In each gel, Lane 1) 15 ng beta-catenin, Lane 2) 7.5 ng beta-catenin, Lane 3) 3.75 ng beta-catenin.
The presence of beta-catenin was successfully detected by all three parent VHHs and not by the control mutant IBV1.CDRAAA.
Background: Immunoblotting shows a protein as a band on a membrane.
In the case of B11, the binding result is on record as “no binding (tested: 16 nM)”.

The target is the same in a further assay. The assay is described as follows: SPR (Biacore T100), biotinylated beta-catenin captured on streptavidin, VHH-scFc in solution. As for the experimental part:
SPR-Affinity measurements: Affinity measurements were performed using a Biacore™T100. Streptavidin was immobilised onto the carboxymethylated dextran coated gold surface of a CM5 sensor chip using amine coupling chemistry, as per manufacture's instructions. The concentrations of streptavidin used in flow cells 1˜4 respectively were 0 μg/mL, 5 μg/mL, 15 μg/mL, 45 μg/mL in 10 mM NaOAc pH5. Biotinylated beta-catenin was then captured on flow cells 2-4 whilst flow cell 1 was the control reference cell. Samples of VHH-scFc at 1 in 2, 1 in 5, 1 in 10, 1 in 20 and 1 in 40 dilutions in HBS-EP were passed over all flow cells for 5 minutes at 30 μL/minute. Buffer blanks were run between every sample set and control transfection supernatant samples were included in each run. Between each sample the chip was regenerated by the addition of 30 μL of 2M guanidine hydrochloride followed by 30 μL of 40 mM HCl. Affinity constants were determined by the fitting of resulting data using BiaEvalution software with a Langmuir 1:1 association method, associations were rejected if the Chi2 value was greater than 1; if the residual data points were not randomly distributed or if the residuals were greater than +/−2 RU. The association data were plotted for the most dilute samples which still gave a RU capture response of at least 40RU. A minimum of four different combinations of dilutions and different beta-catenin coated flow cells were used to calculate association ‘on-rate’ (ka) or dissociation data ‘off-rate’ (kd), and used to calculate KD=kd/ka.
As to B1, the dissociation constant Kd stood at 6.49 nM, the koff was found to be 0.000163 s⁻¹ and the kon is 25100 M⁻¹ s⁻¹.
As to B2, the Kd was 4.38 nM, the koff came out at 0.000169 s⁻¹ and the kon is 38500 M⁻¹ s⁻¹.
The corresponding values for B3 are 4.47 nM, 0.000165 s⁻¹ and 36900 M⁻¹ s⁻¹.
The corresponding values for B4 are 3.78 nM, 0.000248 s⁻¹ and 65600 M⁻¹ s⁻¹.
The corresponding values for B5 are 3.65 nM, 0.00026 s⁻¹ and 71100 M⁻¹ s⁻¹.

The target is the same in another assay. The assay can be described thus: ELISA: biotinylated beta-catenin captured on streptavidin plates, VHH-scFc in half-log dilutions from 32 nM, anti-mouse Fc HRP, delta OD 630/490 nm [lower panel]. As for the experimental part:
FIG. 6: beta-catenin binding ELISA results for parent VHHs and CDR3 mutants. […] The plates were read at 630 and 490 nm and ΔOD recorded. The negative control is a ‘no DNA’ control transfection culture supernatant.
Beta-catenin binding ELISA: ELISA plates were coated with streptavidin ([…]). Biotinylated beta-catenin (1 mg/mL) was added in PBS, for 30 minutes. Blocked samples were added (phage samples or transient VHHscFc samples). After an hour, bound samples were detected using a suitable antibody at 1 in 5,000 dilution in PBS (containing 3% BSA). Detection antibodies were goat anti-M13-HRP (GE Healthcare) or goat anti-mouse Fc HRP (Jackson ImmunoResearch).
The binding of the parent intrabodies and CDR3 mutants to recombinant β-catenin was also tested by ELISA. […] IBV1.CDRAAA and IBS.CDRAAA also appeared to be suitable CDR3 mutant controls for their respective parent except for their lower expression levels within the bioassay. This is not uncommon in conventional antibody expression and single point mutations in antibody CDRs leading to over a 100-fold reduction in expression have been previously reported.
With B12, the binding result was “no binding (tested: 32 nM)”.
Consider B13, for which the binding result is “binds”.
Still for that read-out and setting: for B14 the value was “no binding (tested: 32 nM)”.
